Test results from patent US20240116985A1, “STAPLED PEPTIDES AND METHODS THEREOF” (priority 2020, published 2024).
Starred links: 1 amine or outer side, 2 acyl side, 3 side chain; linkers in the order of their positions; H or OH if unused. Positions of bridges follow the written chain, without caps; N, C: chain ends. Non-standard residues stand in square brackets, D forms with d. Primed or numbered codes have the meaning given here. PyrS2″ = (S)-3-amino-1-((pent-4-en-1-yloxy)carbonyl)pyrrolidine-3-carboxylic acid (stapling residue), C=CCCCOC(=O)N1CC[C@@](N[*:1])(C(=O)[*:2])C1; B5(24) = 2-amino-2-(pent-4-en-1-yl)hept-6-enoic acid, 2,2-bis(4-pentenyl)glycine (stitching residue), C=CCCCC(CCCC=C)(N[*:1])C(=O)[*:2]; B5(4) = 2,2-bis(4-pentenyl)glycine = 2-amino-2-(pent-4-en-1-yl)hept-6-enoic acid (stitching residue), C=CCCCC(CCCC=C)(N[*:1])C(=O)[*:2]; B5(5) = 2,2-bis(4-pentenyl)glycine, 2-amino-2-(pent-4-en-1-yl)hept-6-enoic acid (stitching residue), C=CCCCC(CCCC=C)(N[*:1])C(=O)[*:2]; B5(31) = 2-amino-2-(pent-4-en-1-yl)hept-6-enoic acid (bis-pentenylglycine, stitching residue), C=CCCCC(CCCC=C)(N[*:1])C(=O)[*:2]; B5(3) = 2,2-bis(4-pentenyl)glycine (stitching residue), C=CCCCC(CCCC=C)(N[*:1])C(=O)[*:2]; Phe(3-CF3) = N[C@@H](Cc1cccc(C(F)(F)F)c1)C(=O)O; Phe(4-CF3) = N[C@@H](Cc1ccc(C(F)(F)F)cc1)C(=O)O; Ala(morpholin-4-yl) = N[C@@H](CN1CCOCC1)C(=O)O; Phe(3-COOH) = N[C@@H](Cc1cccc(C(=O)O)c1)C(=O)O; Phe(3-OMe) = COc1cccc(C[C@H](N)C(=O)O)c1; Phe(2-Cl) = N[C@@H](Cc1ccccc1Cl)C(=O)O; 1Nal = N[C@@H](Cc1cccc2ccccc12)C(=O)O; 2Nal = N[C@@H](Cc1ccc2ccccc2c1)C(=O)O; Phe(2-F) = N[C@@H](Cc1ccccc1F)C(=O)O; Bta = N[C@@H](Cc1csc2ccccc12)C(=O)O; Lys(iPr) = CC(C)NCCCC[C@H](N)C(=O)O; αAllylPro = C=CC[C@@]1(C(=O)O)CCCN1; tBuAla = CC(C)(C)C[C@H](N)C(=O)O; 3Thi = N[C@@H](Cc1ccsc1)C(=O)O; Cha = N[C@@H](CC1CCCCC1)C(=O)O; hSer = N[C@@H](CCO)C(=O)O; Aib = CC(C)(N)C(=O)O

B1: I-2070 (peptide)
peptide: Ac-[αAllylPro]N[Cha][B5(4)]DQQAFN[PyrS2″]F[Bta]A-NH2
modifications: staple 1-4, 4-11
B2: I-2069 (peptide)
peptide: Ac-[αAllylPro]N[Cha][B5(4)]DQHAFN[PyrS2″]F[Bta]A-NH2
modifications: staple 1-4, 4-11
B3: I-2068 (peptide)
peptide: Ac-[αAllylPro]N[Cha][B5(4)]DQ[Lys(iPr)]AFN[PyrS2″]F[Bta]F-NH2
modifications: staple 1-4, 4-11
B4: I-2353 (peptide)
peptide: Ac-[αAllylPro][hSer][Cha][B5(4)]DQ[Lys(iPr)]AFL[PyrS2″]F[Bta]Q-NH2
modifications: staple 1-4, 4-11
B5: I-2336 (peptide)
peptide: Ac-[αAllylPro]D[tBuAla][B5(3)]N[Phe(3-COOH)]AAFT[PyrS2″][3Thi][Bta]Q-NH2
modifications: staple 1-4, 4-11
B6: I-2338 (peptide)
peptide: Ac-[αAllylPro]D[tBuAla][B5(3)]NT[Aib]AFN[PyrS2″][3Thi][Bta]Q-NH2
modifications: staple 1-4, 4-11
B7: I-2351 (peptide)
peptide: Ac-[αAllylPro]N[Cha][B5(4)]DQ[Lys(iPr)]AFL[PyrS2″]F[Bta]H-NH2
modifications: staple 1-4, 4-11
B8: I-2354 (peptide)
peptide: Ac-[αAllylPro]N[Cha][B5(3)]DQ[hSer]AFL[PyrS2″]F[Bta]Q-NH2
modifications: staple 1-4, 4-11; also: earlier eluting isomer, configuration not given here
B9: I-2350 (peptide)
peptide: Ac-[αAllylPro]N[Cha][B5(3)]DQ[Lys(iPr)]AFL[PyrS2″]F[Bta]K-NH2
modifications: staple 1-4, 4-11
B10: I-2352 (peptide)
peptide: Ac-[αAllylPro]N[Cha][B5(4)]DQ[Lys(iPr)]AFL[PyrS2″]F[Bta]A-NH2
modifications: staple 1-4, 4-11
B11: I-2348 (peptide)
peptide: Ac-[αAllylPro]N[Cha][B5(31)]DH[Lys(iPr)]AFL[PyrS2″]F[Bta]Q-NH2
modifications: staple 1-4, 4-11; also: staple isomer, earlier eluting HPLC peak
B12: I-2339 (peptide)
peptide: Ac-[αAllylPro]D[tBuAla][B5(31)]NTA[Aib]FN[PyrS2″][3Thi][Bta]Q-NH2
modifications: staple 1-4, 4-11
B13: I-2355 (peptide)
peptide: Ac-[αAllylPro]N[Cha][B5(4)]DQ[hSer]AFL[PyrS2″]F[Bta]Q-NH2
modifications: staple 1-4, 4-11; also: later eluting isomer composition (HPLC), configuration not given here
B14: I-2346 (peptide)
peptide: Ac-[αAllylPro]N[Cha][B5(31)]DK[Lys(iPr)]AFL[PyrS2″]F[Bta]Q-NH2
modifications: staple 1-4, 4-11; also: staple isomer, earlier eluting HPLC peak
B15: I-2345 (peptide)
peptide: Ac-[αAllylPro]N[Cha][B5(31)]D[hSer][Lys(iPr)]AFL[PyrS2″]F[Bta]Q-NH2
modifications: staple 1-4, 4-11
B16: I-2349 (peptide)
peptide: Ac-[αAllylPro]N[Cha][B5(31)]DH[Lys(iPr)]AFL[PyrS2″]F[Bta]Q-NH2
modifications: staple 1-4, 4-11
B17: I-2344 (peptide)
peptide: Ac-[αAllylPro]N[Cha][B5(31)]D[hSer][Lys(iPr)]AFL[PyrS2″]F[Bta]Q-NH2
modifications: staple 1-4, 4-11; also: staple isomer, earlier eluting HPLC peak
B18: I-2347 (peptide)
peptide: Ac-[αAllylPro]N[Cha][B5(31)]DK[Lys(iPr)]AFL[PyrS2″]F[Bta]Q-NH2
modifications: staple 1-4, 4-11
B19: I-2337 (peptide)
peptide: Ac-[αAllylPro]D[tBuAla][B5(31)]NTAAFT[PyrS2″][3Thi][Bta]H-NH2
modifications: staple 1-4, 4-11
B20: I-1116 (peptide)
peptide: Ac-[αAllylPro]D[1Nal][B5(4)]DDAAFL[PyrS2″][Phe(2-Cl)][Bta]S-NH2
modifications: staple 1-4, 4-11
B21: I-1132 (peptide)
peptide: Ac-[αAllylPro]D[tBuAla][B5(24)]DDA[Lys(iPr)]FN[PyrS2″][Phe(2-Cl)][Bta]Q-NH2
modifications: staple 1-4, 4-11
B22: I-1125 (peptide)
peptide: Ac-[αAllylPro]D[Cha][B5(3)]DDAA[Phe(3-CF3)]S[PyrS2″]F[Bta]Q-NH2
modifications: staple 1-4, 4-11 (inferred)
B23: I-1117 (peptide)
peptide: Ac-[αAllylPro]D[2Nal][B5(4)]DDAAFL[PyrS2″][Phe(2-Cl)][Bta]S-NH2
modifications: staple 1-4, 4-11
B24: I-1124 (peptide)
peptide: Ac-[αAllylPro]D[Cha][B5(3)]DDAA[Phe(3-OMe)]S[PyrS2″]F[Bta]Q-NH2
modifications: staple 1-4, 4-11 (inferred)
B25: I-1118 (peptide)
peptide: Ac-[αAllylPro]D[Cha][B5(3)]DDAA[Phe(3-OMe)]S[PyrS2″][Phe(2-Cl)][Bta]Q-NH2
modifications: staple 1-4, 4-11 (inferred)
B26: I-1126 (peptide)
peptide: Ac-[αAllylPro]D[Cha][B5(3)]DDAAFS[PyrS2″]F[Bta]Q-NH2
modifications: staple 1-4, 4-11 (inferred); not fully specified (residue 9); printed as Ac-PL3-Asp-Cha-B5-Asp-Asp-Ala-Ala-4F3MeF-Ser-PyrS2-Phe-BztA-Gln-NH2
B27: I-1131 (peptide)
peptide: Ac-[αAllylPro]D[tBuAla][B5(24)]DD[Lys(iPr)]AFN[PyrS2″][Phe(2-Cl)][Bta]Q-NH2
modifications: staple 1-4, 4-11
B28: I-1120 (peptide)
peptide: Ac-[αAllylPro]D[Cha][B5(3)]DDAAFS[PyrS2″][Phe(2-Cl)][Bta]Q-NH2
modifications: staple 1-4, 4-11 (inferred); not fully specified (residue 9); printed as Ac-PL3-Asp-Cha-B5-Asp-Asp-Ala-Ala-4F3MeF-Ser-PyrS2-2C1F-BztA-Gln-NH2
B29: I-1133 (peptide)
peptide: Ac-[αAllylPro]D[tBuAla][B5(4)]DDAAFN[PyrS2″][Phe(2-Cl)][Bta][Ala(morpholin-4-yl)]-NH2
modifications: staple 1-4, 4-11; also: earlier eluting staple isomer
B30: I-1119 (peptide)
peptide: Ac-[αAllylPro]D[Cha][B5(3)]DDAA[Phe(3-CF3)]S[PyrS2″][Phe(2-Cl)][Bta]Q-NH2
modifications: staple 1-4, 4-11 (inferred)
B31: I-1130 (peptide)
peptide: Ac-[αAllylPro]D[tBuAla][B5(24)]DDAAFN[PyrS2″][Phe(2-Cl)][Bta][Lys(iPr)]-NH2
modifications: staple 1-4, 4-11
B32: I-1038 (peptide)
peptide: Ac-[αAllylPro]D[tBuAla][B5(5)]DEAAFF[PyrS2″][Phe(2-Cl)][Bta][dT]-NH2
modifications: staple 1-4, 4-11
B33: I-1024 (peptide)
peptide: Ac-[αAllylPro]D[tBuAla][B5(5)]DNAAFT[PyrS2″][Phe(2-F)][Bta]S-NH2
modifications: staple 1-4, 4-11
B34: I-1039 (peptide)
peptide: Ac-[αAllylPro]D[tBuAla][B5(5)]DEAAFL[PyrS2″][Phe(2-Cl)][Bta][dT]-NH2
modifications: staple 1-4, 4-11
B35: I-1027 (peptide)
peptide: Ac-[αAllylPro]F[tBuAla][B5(5)]DDAADN[PyrS2″][3Thi][Bta]Q-OH
modifications: staple 1-4, 4-11

The binders below were run against full-length beta-Catenin (Uniprot ID P35222) (Homo sapiens (Human)) (UniProt P35222) (assay: fluorescence polarization competition; 10 nM full-length beta-catenin, 10 nM 5FAM-TCF4(10-53) as competitor probe).
Target sequence in this assay (P35222 2-781 limits assumed): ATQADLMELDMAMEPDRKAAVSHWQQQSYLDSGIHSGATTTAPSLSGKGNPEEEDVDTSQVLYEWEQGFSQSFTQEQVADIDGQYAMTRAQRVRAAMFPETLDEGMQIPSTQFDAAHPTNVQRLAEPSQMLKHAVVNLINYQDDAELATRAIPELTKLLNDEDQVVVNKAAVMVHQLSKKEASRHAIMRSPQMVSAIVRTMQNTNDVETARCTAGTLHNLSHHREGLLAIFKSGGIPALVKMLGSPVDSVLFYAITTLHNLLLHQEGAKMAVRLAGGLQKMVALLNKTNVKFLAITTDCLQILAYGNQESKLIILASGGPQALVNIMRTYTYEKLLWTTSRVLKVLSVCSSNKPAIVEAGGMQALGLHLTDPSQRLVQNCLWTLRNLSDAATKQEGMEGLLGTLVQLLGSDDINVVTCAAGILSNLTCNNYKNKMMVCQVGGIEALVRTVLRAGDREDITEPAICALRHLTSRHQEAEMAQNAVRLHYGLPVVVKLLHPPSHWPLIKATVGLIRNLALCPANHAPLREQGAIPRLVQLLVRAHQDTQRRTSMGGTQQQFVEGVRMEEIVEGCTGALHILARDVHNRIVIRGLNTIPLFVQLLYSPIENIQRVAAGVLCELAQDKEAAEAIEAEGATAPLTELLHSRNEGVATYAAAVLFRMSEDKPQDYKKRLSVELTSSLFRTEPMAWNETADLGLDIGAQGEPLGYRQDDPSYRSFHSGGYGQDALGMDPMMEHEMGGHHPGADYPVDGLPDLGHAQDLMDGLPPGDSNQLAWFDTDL

| IC50 [nM] | Binder |
| --- | --- |
| 190 | B1 |
| 256 | B2 |
| 338 | B3 |

What follows are binders tested against full-length beta-Catenin (Uniprot ID P35222) (Homo sapiens (Human)) (UniProt P35222) (assay: fluorescence polarization competition; 10 nM full-length beta-catenin + 10 nM 5FAM-TCF4(10-53) probe; peptide titrated 10 uM to 5 nM).
Target sequence in this assay (P35222 2-781 limits assumed): as above

| IC50 [nM] | Binder |
| --- | --- |
| 2760 | B4 |
| 19 | B5 |
| 63 | B6 |
| 187 | B7 |
| 100 | B8 |
| 63 | B9 |
| 211 | B10 |
| 179 | B11 |
| 2820 | B12 |
| 417 | B13 |
| 422 | B14 |
| 1270 | B15 |
| 1160 | B16 |
| 586 | B17 |
| 5630 | B18 |
| 311 | B19 |

What follows are binders tested against full-length beta-Catenin (Uniprot ID P35222) (Homo sapiens (Human)) (UniProt P35222) (assay: fluorescence polarization competition, full-length beta-catenin, competitor 5FAM-TCF4 10-53).
Target sequence in this assay (P35222 whole entry): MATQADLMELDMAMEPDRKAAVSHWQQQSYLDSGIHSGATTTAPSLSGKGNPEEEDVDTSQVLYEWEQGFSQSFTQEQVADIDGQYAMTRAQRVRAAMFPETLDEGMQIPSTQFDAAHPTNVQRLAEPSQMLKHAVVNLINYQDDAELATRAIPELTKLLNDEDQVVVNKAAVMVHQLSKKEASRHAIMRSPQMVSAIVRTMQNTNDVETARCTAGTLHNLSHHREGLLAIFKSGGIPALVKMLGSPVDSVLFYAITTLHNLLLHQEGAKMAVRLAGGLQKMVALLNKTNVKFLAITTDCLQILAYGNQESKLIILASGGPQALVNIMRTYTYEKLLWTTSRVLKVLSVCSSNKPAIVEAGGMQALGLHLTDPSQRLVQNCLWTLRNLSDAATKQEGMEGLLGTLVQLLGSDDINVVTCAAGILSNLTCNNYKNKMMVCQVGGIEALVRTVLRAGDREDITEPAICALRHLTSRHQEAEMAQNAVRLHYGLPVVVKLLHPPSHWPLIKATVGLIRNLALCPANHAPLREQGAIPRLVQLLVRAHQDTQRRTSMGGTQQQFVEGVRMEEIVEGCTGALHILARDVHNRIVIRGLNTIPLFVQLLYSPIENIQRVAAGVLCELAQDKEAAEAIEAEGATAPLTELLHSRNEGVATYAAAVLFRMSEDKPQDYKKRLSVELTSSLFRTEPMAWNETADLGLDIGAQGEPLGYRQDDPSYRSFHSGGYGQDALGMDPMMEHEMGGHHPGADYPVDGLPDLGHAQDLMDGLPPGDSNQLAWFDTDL

| IC50 [nM] | Binder |
| --- | --- |
| 40 | B20 |
| 21 | B21 |
| 16 | B22 |
| 55 | B23 |
| 12 | B24 |
| 24 | B25 |
| 32 | B26 |
| 7 | B27 |
| 85 | B28 |
| 5 | B29 |
| 26 | B30 |
| 6 | B31 |

What follows are binders tested against full-length beta-Catenin (Uniprot ID P35222) (Homo sapiens (Human)) (UniProt P35222) (assay: fluorescence polarization competition; full-length beta-catenin, competitor 5FAM-TCF4 10-53).
Target sequence in this assay (P35222 whole entry): as above

| IC50 [nM] | Binder |
| --- | --- |
| 101 | B32 |
| 43 | B33 |
| 57 | B34 |

What follows are binders tested against full-length beta-Catenin (Uniprot ID P35222) (Homo sapiens (Human)) (UniProt P35222) (assay: fluorescence polarization competition; 10 nM full-length beta-catenin + 10 nM 5FAM-TCF4 10-53 as competitor probe).
Target sequence in this assay (P35222 2-781 limits assumed): as the sequence (P35222 2-781 limits assumed) above

| EC50 [nM] | Binder |
| --- | --- |
| 101 | B32 |
| 43 | B33 |
| 1140 | B35 |
| 57 | B34 |

These binders were tested against full-length beta-Catenin (Uniprot ID P35222) (Homo sapiens (Human)) (UniProt P35222) (assay: fluorescence polarization competition, 5FAM-TCF4 10-53 probe on full-length beta-catenin).
Target sequence in this assay (P35222 2-781 limits assumed): as above

| EC50 [nM] | Binder |
| --- | --- |
| 40 | B20 |
| 21 | B21 |
| 16 | B22 |
| 55 | B23 |
| 12 | B24 |
| 24 | B25 |
| 32 | B26 |
| 7 | B27 |
| 85 | B28 |
| 5 | B29 |
| 26 | B30 |
| 6 | B31 |
